{
  "source": "patent US20170342107A1",
  "about": "(REGENTS OF THE UNIVERSITY OF MINNESOTA, published 2017)",
  "key": {"[1]": {"molecular_target": "T1, mouse melanocortin-4 receptor (mouse, UniProt P56450 1-332)", "T1 sequence (P56450 whole entry)": "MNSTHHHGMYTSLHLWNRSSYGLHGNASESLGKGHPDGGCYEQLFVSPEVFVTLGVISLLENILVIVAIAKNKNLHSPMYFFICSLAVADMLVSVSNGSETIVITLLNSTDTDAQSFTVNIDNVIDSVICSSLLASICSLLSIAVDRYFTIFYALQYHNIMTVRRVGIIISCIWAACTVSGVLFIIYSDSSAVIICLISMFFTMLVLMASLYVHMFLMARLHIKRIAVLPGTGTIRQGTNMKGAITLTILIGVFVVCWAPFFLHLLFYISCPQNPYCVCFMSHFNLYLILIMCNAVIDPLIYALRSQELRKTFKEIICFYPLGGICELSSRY", "assay": "cell-based or functional assay"}, "[2]": {"molecular_target": "T2, mouse melanocortin-3 receptor (mouse, UniProt P33033 1-323)", "T2 sequence (P33033 whole entry)": "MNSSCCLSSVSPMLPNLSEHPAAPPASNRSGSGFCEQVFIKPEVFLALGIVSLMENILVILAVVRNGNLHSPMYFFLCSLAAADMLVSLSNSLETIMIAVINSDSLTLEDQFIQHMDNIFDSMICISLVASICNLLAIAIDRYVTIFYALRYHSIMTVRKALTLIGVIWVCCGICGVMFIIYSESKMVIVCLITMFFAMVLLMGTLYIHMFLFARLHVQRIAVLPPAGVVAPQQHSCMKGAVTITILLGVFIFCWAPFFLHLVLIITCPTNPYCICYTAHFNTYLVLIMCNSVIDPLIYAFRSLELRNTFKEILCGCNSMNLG", "assay": "cell-based or functional assay"}, "[3]": {"molecular_target": "T1, mouse melanocortin-4 receptor", "assay": "cell-based or functional assay", "remark": "listed apart in the source"}, "[4]": {"molecular_target": "T3, mouse melanocortin-5 receptor (mouse, UniProt P41149 1-325)", "T3 sequence (P41149 whole entry)": "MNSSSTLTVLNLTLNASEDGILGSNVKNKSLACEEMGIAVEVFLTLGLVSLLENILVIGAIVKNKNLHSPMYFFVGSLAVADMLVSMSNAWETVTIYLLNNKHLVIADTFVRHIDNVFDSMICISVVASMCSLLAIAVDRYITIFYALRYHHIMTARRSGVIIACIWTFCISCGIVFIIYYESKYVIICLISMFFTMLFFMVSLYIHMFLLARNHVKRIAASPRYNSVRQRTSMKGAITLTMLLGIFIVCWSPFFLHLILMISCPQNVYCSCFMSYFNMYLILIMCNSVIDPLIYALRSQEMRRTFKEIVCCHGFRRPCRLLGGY", "assay": "cell-based or functional assay"}, "[5]": {"molecular_target": "T1, mouse melanocortin-4 receptor", "assay": "cell-based or functional assay", "remark": "listed apart in the source"}, "[6]": {"molecular_target": "T2, mouse melanocortin-3 receptor", "assay": "125I-NDP-MSH competitive displacement, HEK293 cells stably expressing mMC3R; negative = more potent than control", "description": "(§1) A typical experiment utilized a 12-well format."}, "[7]": {"molecular_target": "T1, mouse melanocortin-4 receptor", "assay": "125I-NDP-MSH competitive displacement, HEK293 cells stably expressing mMC4R; negative = more potent than control", "description": "as §1"}, "[8]": {"molecular_target": "T2, mouse melanocortin-3 receptor", "assay": "125I-NDP-MSH competitive displacement, HEK293 cells stably expressing mMC3R", "description": "as §1"}, "[9]": {"molecular_target": "mouse melanocortin-1 receptor (mouse, UniProt Q01727 1-315)", "sequence (Q01727 whole entry)": "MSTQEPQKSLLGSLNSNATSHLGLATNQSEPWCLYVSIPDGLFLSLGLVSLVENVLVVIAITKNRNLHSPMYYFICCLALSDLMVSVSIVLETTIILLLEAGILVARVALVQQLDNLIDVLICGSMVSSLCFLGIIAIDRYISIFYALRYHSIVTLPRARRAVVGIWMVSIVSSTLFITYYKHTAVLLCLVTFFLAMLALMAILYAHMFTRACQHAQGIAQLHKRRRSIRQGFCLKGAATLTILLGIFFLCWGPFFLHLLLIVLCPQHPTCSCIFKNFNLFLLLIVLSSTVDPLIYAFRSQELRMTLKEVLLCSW", "assay": "cell-based or functional assay"}, "[10]": {"molecular_target": "T3, mouse melanocortin-5 receptor", "assay": "cell-based or functional assay", "remark": "listed apart in the source"}, "[11]": {"molecular_target": "T2, mouse melanocortin-3 receptor", "assay": "cell-based or functional assay", "remark": "listed apart in the source"}},
  "note": "Like-named read-outs stand apart in the source and are kept apart here. Square brackets hold non-standard residues; d marks the D form. * marks the point of attachment. Phe(4-I) = N[C@@H](Cc1ccc(I)cc1)C(=O)O; dPhe(4-I) = N[C@H](Cc1ccc(I)cc1)C(=O)O; Bta = N[C@@H](Cc1csc2ccccc12)C(=O)O; Tic = O=C(O)[C@@H]1Cc2ccccc2CN1; dTic = O=C(O)[C@H]1Cc2ccccc2CN1; For = O=C*",
  "data": [
    {"binder": "For-[dF][Phe(4-I)][dR][dH]-NH2 (SMILES N=C(N)NCCC[C@@H](NC(=O)[C@H](Cc1ccc(I)cc1)NC(=O)[C@@H](Cc1ccccc1)NC=O)C(=O)N[C@H](Cc1c[nH]cn1)C(N)=O)", "note": "[SKY5-142-A, For-DPhe-(pI)Phe-DArg-DHis-NH2]", "values": [
      {"measurement": "Antagonist Ki", "setting": "[1]", "result": "> 3.1", "unit": "µM"},
      {"measurement": "pA2 (antagonist)", "setting": "[2]", "result": 6.7, "unit": "pA2"},
      {"measurement": "Agonist, % of NDP-MSH maximal response", "setting": "[3]", "result": 47, "unit": "% @ 100 µM"}
    ]},
    {"binder": "For-[dTic][Phe(4-I)][dR][dH]-NH2 (SMILES N=C(N)NCCC[C@@H](NC(=O)[C@H](Cc1ccc(I)cc1)NC(=O)[C@H]1Cc2ccccc2CN1C=O)C(=O)N[C@H](Cc1c[nH]cn1)C(N)=O)", "note": "[SKY5-148, For-DTic-(pI)Phe-DArg-DHis-NH2]", "values": [
      {"measurement": "Antagonist Ki", "setting": "[1]", "result": "> 3.1", "unit": "µM"},
      {"measurement": "pA2 (antagonist)", "setting": "[2]", "result": 6.8, "unit": "pA2"},
      {"measurement": "Agonist, % of NDP-MSH maximal response", "setting": "[3]", "result": 71, "unit": "% @ 100 µM"},
      {"measurement": "pA2 (antagonist)", "setting": "[3]", "result": 5.4, "unit": "pA2"}
    ]},
    {"binder": "Ac-[dW][dR]F[dH]-NH2 (SMILES CC(=O)N[C@H](Cc1c[nH]c2ccccc12)C(=O)N[C@H](CCCNC(=N)N)C(=O)N[C@@H](Cc1ccccc1)C(=O)N[C@H](Cc1c[nH]cn1)C(N)=O)", "note": "[SKY5-121, Ac-DTrp-DArg-Phe-DHis-NH2]", "values": [
      {"measurement": "Agonist, % of NDP-MSH maximal response", "setting": "[4]", "result": 29, "unit": "% @ 100 µM"}
    ]},
    {"binder": "Ac-HR[dPhe(4-I)][Bta]-NH2", "note": "[SKY4-48-11, Ac-His-Arg-(pI)DPhe-3Bal-NH2]", "values": [
      {"measurement": "Agonist, % of NDP-MSH maximal response", "setting": "[5]", "result": 47, "unit": "% @ 100 µM"},
      {"measurement": "Fold Diff. (IC50 against SKY4-48-1)", "setting": "[6]", "result": -15, "unit": "fold"},
      {"measurement": "Fold Diff. (IC50 against SKY4-48-1)", "setting": "[7]", "result": 2, "unit": "fold"}
    ]},
    {"binder": "Ac-FR[dPhe(4-I)][Bta]-NH2", "note": "[SKY4-48-15, Ac-Phe-Arg-(pI)DPhe-3Bal-NH2]", "values": [
      {"measurement": "IC50", "setting": "[8]", "result": 5.35, "unit": "µM"},
      {"measurement": "Fold Diff. (IC50 against SKY4-48-1)", "setting": "[6]", "result": -9, "unit": "fold"},
      {"measurement": "Fold Diff. (IC50 against SKY4-48-1)", "setting": "[7]", "result": 7, "unit": "fold"}
    ]},
    {"binder": "Ac-HR[dPhe(4-I)][Tic]-NH2", "note": "[SKY6-24-2, Ac-His-Arg-(pI)DPhe-Tic-NH2]", "values": [
      {"measurement": "fold increase in agonist potency against SKY5-146-7", "setting": "[9]", "result": 380, "unit": "fold"},
      {"measurement": "fold increase in agonist potency against SKY5-146-7", "setting": "[10]", "result": 40, "unit": "fold"}
    ]},
    {"binder": "Ac-SYSMEHRFWGKPV-NH2", "note": "[SKY2-125-5, (Arg7, Phe8) α-MSH, Ac-Ser-Tyr-Ser-Met-Glu-His-Arg-Phe-Trp-Gly-Lys-Pro-Val-NH2]", "values": [
      {"measurement": "fold decreased agonist potency against α-MSH", "setting": "[11]", "result": 45000, "unit": "fold"}
    ]}
  ]
}
